The text below walks through data of article PMC10133315, “Overcoming adaptive resistance to anti-VEGF therapy by targeting CD5L”.

The series concerns the target T1, CD5L (AIM) (Homo sapiens, UniProt O43866 20-347).
T1 sequence: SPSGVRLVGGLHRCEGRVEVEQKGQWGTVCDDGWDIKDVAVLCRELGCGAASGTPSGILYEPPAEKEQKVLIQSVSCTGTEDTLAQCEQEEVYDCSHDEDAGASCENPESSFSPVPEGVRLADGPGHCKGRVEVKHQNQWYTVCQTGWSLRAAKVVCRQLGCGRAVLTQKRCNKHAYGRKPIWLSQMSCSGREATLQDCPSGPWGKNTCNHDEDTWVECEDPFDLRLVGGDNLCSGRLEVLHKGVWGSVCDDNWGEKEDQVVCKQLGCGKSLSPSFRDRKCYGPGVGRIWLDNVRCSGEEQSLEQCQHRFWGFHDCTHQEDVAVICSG
The experiment in a line: MST; Cy5-S76.T 2 nM, CD5L titrated; MST: S11/S23 in binding buffer pH 7.4, 1 mM MgCl2, 0.1% Tween 20, 1 nM labelled protein; S76 in TBS; S76.T (Cy5, 2 nM) in 50 mM Tris-HCl pH 7.8, 150 mM NaCl, 0.05% Tween 20; temperature not stated. The conditions noted are these: protein: commercial; tags: His-tag; label: Cy5; hairpin.

On to AGGUUGCAGCGUUCGACAGGAGGCUCACAACAG (structured_RNA, 2'-fluoro pyrimidines) [S76.T], for which binding was put at a Kd of 10.1 ± 2.3 nM.
